{
  "source": "the FLAb antibody collection (doi:10.7554/elife.23156)",
  "parents": {"B1": {"name": "scFv; the commonest letter at each place (parent)", "chain 1": "EVKLDETGGGLVQPGRPMKLSCVASGFTFSDYWMNWVRQSPEKGLEWVAQIRNKPYNYETYYSDSVKGRFTISRDDSKSSVYLQMNNLRVEDMGIYYCTGSYYGMDYWGQGTSVTVS", "chain 2": "DVVMTQTPLSLPVSLGDQASISCRSSQSLVHSNGNTYLRWYLQKPGQSPKVLIYKVSNRFSGVPDRFSGSGSGTDFTLKISRVEAEDLGVYFCSQSTHVPWTFGGGTKLEIK"}},
  "key": {"fluorescein": {"variants_of": "B1", "experiment": "Kd (Tite-Seq)", "settings": "with fluorescein; format: scFv 4-4-20, heavy + light"}, "[1]": {"variants_of": "B1", "experiment": "yeast surface expression (ratio to wild type); higher = more expressed", "settings": "format: scFv 4-4-20, heavy + light"}},
  "data": [
    {"variant": "chain 1 EVKLDETGGGLVQPGRPMKLSCVASGFTFSDYWMNWVRQSPEKGLEWVAQIRNKPYNYETYYSDSVKGRFTISRDDSKSSVYLQMNNLRVEDMGIYYCTGSWYGMDWWGQGTSVTVS chain 2 DVVMTQTPLSLPVSLGDQASISCRSSQSLVHSNGNTYLRWYLQKPGQSPKVLIYKVSNRFSGVPDRFSGSGSGTDFTLKISRVEAEDLGVYFCSQSTHVPWTFGGGTKLEIK", "note": "[chain 1 Y102W Y107W]", "values": [
      {"measurement": "Kd", "setting": "fluorescein", "value": 1.58, "unit": "nM"},
      {"measurement": "yeast surface expression", "setting": "[1]", "value": 0.797}
    ]},
    {"variant": "chain 1 EVKLDETGGGLVQPGRPMKLSCVASGFTFSDYWMNWVRQSPEKGLEWVAQIRNKPYNYETYYSDSVKGRFTISRDDSKSSVYLQMNNLRVEDMGIYYCTGSYAGMDYWGQGTSVTVS chain 2 DVVMTQTPLSLPVSLGDQASISCRSSQSLVHSNGNTYLRWYLQKPGQSPKVLIYKVSNRFSGVPDRFSGSGSGTDFTLKISRVEAEDLGVYFCSQSTHVPWTFGGGTKLEIK", "note": "[chain 1 Y103A]", "values": [
      {"measurement": "Kd", "setting": "fluorescein", "value": 15, "unit": "nM"},
      {"measurement": "yeast surface expression", "setting": "[1]", "value": 0.932}
    ]},
    {"variant": "chain 1 EVKLDETGGGLVQPGRPMKLSCVASGFTFSDYWMNWVRQSPEKGLEWVAQIRNKPYNYETYYSDSVKGRFTISRDDSKSSVYLQMNNLRVEDMGIYYCTGSYAGMIYPGQGTSVTVS chain 2 DVVMTQTPLSLPVSLGDQASISCRSSQSLVHSNGNTYLRWYLQKPGQSPKVLIYKVSNRFSGVPDRFSGSGSGTDFTLKISRVEAEDLGVYFCSQSTHVPWTFGGGTKLEIK", "note": "[chain 1 Y103A D106I W108P]", "values": [
      {"measurement": "Kd", "setting": "fluorescein", "value": "≥ 10000", "unit": "nM"},
      {"measurement": "yeast surface expression", "setting": "[1]", "value": 0.344}
    ]},
    {"variant": "chain 1 EVKLDETGGGLVQPGRPMKLSCVASGFTFSDYWMNWVRQSPEKGLEWVAQIRNKPYNYETYYSDSVKGRFTISRDDSKSSVYLQMNNLRVEDMGIYYCTGSYAAMDYWGQGTSVTVS chain 2 DVVMTQTPLSLPVSLGDQASISCRSSQSLVHSNGNTYLRWYLQKPGQSPKVLIYKVSNRFSGVPDRFSGSGSGTDFTLKISRVEAEDLGVYFCSQSTHVPWTFGGGTKLEIK", "note": "[chain 1 Y103A G104A]", "values": [
      {"measurement": "Kd", "setting": "fluorescein", "value": "≥ 10000", "unit": "nM"},
      {"measurement": "yeast surface expression", "setting": "[1]", "value": 0.911}
    ]},
    {"variant": "chain 1 EVKLDETGGGLVQPGRPMKLSCVASGFTFSDYWMNWVRQSPEKGLEWVAQIRNKPYNYETYYSDSVKGRFTISRDDSKSSVYLQMNNLRVEDMGIYYCTGSYAYMDYWTQGTSVTVS chain 2 DVVMTQTPLSLPVSLGDQASISCRSSQSLVHSNGNTYLRWYLQKPGQSPKVLIYKVSNRFSGVPDRFSGSGSGTDFTLKISRVEAEDLGVYFCSQSTHVPWTFGGGTKLEIK", "note": "[chain 1 Y103A G104Y G109T]", "values": [
      {"measurement": "Kd", "setting": "fluorescein", "value": "≥ 10000", "unit": "nM"},
      {"measurement": "yeast surface expression", "setting": "[1]", "value": 0.211}
    ]},
    {"variant": "chain 1 EVKLDETGGGLVQPGRPMKLSCVASGFTFSDYWMNWVRQSPEKGLEWVAQIRNKPYNYETYYSDSVKGRFTISRDDSKSSVYLQMNNLRVEDMGIYYCTGSYAGMDYDGQGTSVTVS chain 2 DVVMTQTPLSLPVSLGDQASISCRSSQSLVHSNGNTYLRWYLQKPGQSPKVLIYKVSNRFSGVPDRFSGSGSGTDFTLKISRVEAEDLGVYFCSQSTHVPWTFGGGTKLEIK", "note": "[chain 1 Y103A W108D]", "values": [
      {"measurement": "Kd", "setting": "fluorescein", "value": "≥ 10000", "unit": "nM"},
      {"measurement": "yeast surface expression", "setting": "[1]", "value": 0.576}
    ]},
    {"variant": "chain 1 EVKLDETGGGLVQPGRPMKLSCVASGFTFSDYWMNWVRQSPEKGLEWVAQIRNKPYNYETYYSDSVKGRFTISRDDSKSSVYLQMNNLRVEDMGIYYCTGSYAGMDYEGQGTSVTVS chain 2 DVVMTQTPLSLPVSLGDQASISCRSSQSLVHSNGNTYLRWYLQKPGQSPKVLIYKVSNRFSGVPDRFSGSGSGTDFTLKISRVEAEDLGVYFCSQSTHVPWTFGGGTKLEIK", "note": "[chain 1 Y103A W108E]", "values": [
      {"measurement": "Kd", "setting": "fluorescein", "value": "≥ 10000", "unit": "nM"},
      {"measurement": "yeast surface expression", "setting": "[1]", "value": 0.603}
    ]},
    {"variant": "chain 1 EVKLDETGGGLVQPGRPMKLSCVASGFTFSDYWMNWVRQSPEKGLEWVAQIRNKPYNYETYYSDSVKGRFTISRDDSKSSVYLQMNNLRVEDMGIYYCTGSYAGMDTWGQGTSVTVS chain 2 DVVMTQTPLSLPVSLGDQASISCRSSQSLVHSNGNTYLRWYLQKPGQSPKVLIYKVSNRFSGVPDRFSGSGSGTDFTLKISRVEAEDLGVYFCSQSTHVPWTFGGGTKLEIK", "note": "[chain 1 Y103A Y107T]", "values": [
      {"measurement": "Kd", "setting": "fluorescein", "value": 110, "unit": "nM"},
      {"measurement": "yeast surface expression", "setting": "[1]", "value": 1.13}
    ]},
    {"variant": "chain 1 EVKLDETGGGLVQPGRPMKLSCVASGFTFSDYWMNWVRQSPEKGLEWVAQIRNKPYNYETYYSDSVKGRFTISRDDSKSSVYLQMNNLRVEDMGIYYCTGSYCGMDYWGQGTSVTVS chain 2 DVVMTQTPLSLPVSLGDQASISCRSSQSLVHSNGNTYLRWYLQKPGQSPKVLIYKVSNRFSGVPDRFSGSGSGTDFTLKISRVEAEDLGVYFCSQSTHVPWTFGGGTKLEIK", "note": "[chain 1 Y103C]", "values": [
      {"measurement": "Kd", "setting": "fluorescein", "value": 4.93, "unit": "nM"},
      {"measurement": "yeast surface expression", "setting": "[1]", "value": 0.775}
    ]},
    {"variant": "chain 1 EVKLDETGGGLVQPGRPMKLSCVASGFTFSDYWMNWVRQSPEKGLEWVAQIRNKPYNYETYYSDSVKGRFTISRDDSKSSVYLQMNNLRVEDMGIYYCTGSYCGMLYWGQGTSVTVS chain 2 DVVMTQTPLSLPVSLGDQASISCRSSQSLVHSNGNTYLRWYLQKPGQSPKVLIYKVSNRFSGVPDRFSGSGSGTDFTLKISRVEAEDLGVYFCSQSTHVPWTFGGGTKLEIK", "note": "[chain 1 Y103C D106L]", "values": [
      {"measurement": "Kd", "setting": "fluorescein", "value": "≥ 10000", "unit": "nM"},
      {"measurement": "yeast surface expression", "setting": "[1]", "value": 0.589}
    ]},
    {"variant": "chain 1 EVKLDETGGGLVQPGRPMKLSCVASGFTFSDYWMNWVRQSPEKGLEWVAQIRNKPYNYETYYSDSVKGRFTISRDDSKSSVYLQMNNLRVEDMGIYYCTGSYCCMDYWGQGTSVTVS chain 2 DVVMTQTPLSLPVSLGDQASISCRSSQSLVHSNGNTYLRWYLQKPGQSPKVLIYKVSNRFSGVPDRFSGSGSGTDFTLKISRVEAEDLGVYFCSQSTHVPWTFGGGTKLEIK", "note": "[chain 1 Y103C G104C]", "values": [
      {"measurement": "Kd", "setting": "fluorescein", "value": "≥ 10000", "unit": "nM"},
      {"measurement": "yeast surface expression", "setting": "[1]", "value": 0.223}
    ]},
    {"variant": "chain 1 EVKLDETGGGLVQPGRPMKLSCVASGFTFSDYWMNWVRQSPEKGLEWVAQIRNKPYNYETYYSDSVKGRFTISRDDSKSSVYLQMNNLRVEDMGIYYCTGSYCHMDYWGQGTSVTVS chain 2 DVVMTQTPLSLPVSLGDQASISCRSSQSLVHSNGNTYLRWYLQKPGQSPKVLIYKVSNRFSGVPDRFSGSGSGTDFTLKISRVEAEDLGVYFCSQSTHVPWTFGGGTKLEIK", "note": "[chain 1 Y103C G104H]", "values": [
      {"measurement": "Kd", "setting": "fluorescein", "value": 2010, "unit": "nM"},
      {"measurement": "yeast surface expression", "setting": "[1]", "value": 0.403}
    ]}
  ]
}
